{"source": "patent US20260235581A1", "about": "“METHOD FOR THE SELECTION OF AN ECOBIOLOGICAL COMPOUND CAPABLE OF INCREASING THE SKIN TOLERANCE THRESHOLD” (NAOS INSTITUTE OF LIFE SCIENCE, priority 2023, published 2026)", "system": "TAFA4", "assay": "TAFA4 synthesis in normal human keratinocyte culture supernatant, dot blot", "assay_type": "cell-based", "conditions": "72 hours of incubation, EGF 30 ng/ml, versus KGM medium control set to 100%, statistically significant", "method": "Normal human keratinocytes (NHK) have been used in this study. They come from Promocell (Germany). The cells are seeded at 100,000 cells/well in the 24-well plates in KGM. After 24 hours, the cells are incubated with the compound shown in the table below in KBM+P/S medium at 37° C., 5% CO2.\nAfter 72 hours of incubation, the supernatants and protein extracts (obtained from the cell layer) were recovered and stored at −80° C.\nAfter 72 hours of incubation at 37° C., 5% CO2, the supernatants and protein extracts (obtained from the cell layer) are recovered and stored at −80° C.\nBefore assaying the TAFA4 protein, an evaluation of the toxicity of the compounds is performed using the MTT test. Only the concentrations making it possible to obtain a viability greater than 80% are selected to be quantified by ELISA and dot blot.\nThe results are expressed as a percentage of TAFA4 expression by standardising the control to 100% (KGM medium control). The data have been obtained from an independent experiment carried out in triplicate."}
{"molecule": "EGF: epidermal growth factor protein, AF-100-15, Peprotech (protein, UniProt P01133 23-1207, looked up, Pro-epidermal growth factor, epidermal growth factor protein, AF-100-15, Peprotech) Pro-epidermal growth factor: PQHWSCPEGTLAGNGNSTCVGPAPFLIFSHGNSIFRIDTEGTNYEQLVVDAGVSVIMDFHYNEKRIYWVDLERQLLQRVFLNGSRQERVCNIEKNVSGMAINWINEEVIWSNQQEGIITVTDMKGNNSHILLSALKYPANVAVDPVERFIFWSSEVAGSLYRADLDGVGVKALLETSEKITAVSLDVLDKRLFWIQYNREGSNSLICSCDYDGGSVHISKHPTQHNLFAMSLFGDRIFYSTWKMKTIWIANKHTGKDMVRINLHSSFVPLGELKVVHPLAQPKAEDDTWEPEQKLCKLRKGNCSSTVCGQDLQSHLCMCAEGYALSRDRKYCEDVNECAFWNHGCTLGCKNTPGSYYCTCPVGFVLLPDGKRCHQLVSCPRNVSECSHDCVLTSEGPLCFCPEGSVLERDGKTCSGCSSPDNGGCSQLCVPLSPVSWECDCFPGYDLQLDEKSCAASGPQPFLLFANSQDIRHMHFDGTDYGTLLSQQMGMVYALDHDPVENKIYFAHTALKWIERANMDGSQRERLIEEGVDVPEGLAVDWIGRRFYWTDRGKSLIGRSDLNGKRSKIITKENISQPRGIAVHPMAKRLFWTDTGINPRIESSSLQGLGRLVIASSDLIWPSGITIDFLTDKLYWCDAKQSVIEMANLDGSKRRRLTQNDVGHPFAVAVFEDYVWFSDWAMPSVMRVNKRTGKDRVRLQGSMLKPSSLVVVHPLAKPGADPCLYQNGGCEHICKKRLGTAWCSCREGFMKASDGKTCLALDGHQLLAGGEVDLKNQVTPLDILSKTRVSEDNITESQHMLVAEIMVSDQDDCAPVGCSMYARCISEGEDATCQCLKGFAGDGKLCSDIDECEMGVPVCPPASSKCINTEGGYVCRCSEGYQGDGIHCLDIDECQLGEHSCGENASCTNTEGGYTCMCAGRLSEPGLICPDSTPPPHLREDDHHYSVRNSDSECPLSHDGYCLHDGVCMYIEALDKYACNCVVGYIGERCQYRDLKWWELRHAGHGQQQKVIVVAVCVVVLVMLLLLSLWGAHYYRTQKLLSKNPKNPYEESSRDVRSRRPADTEDGMSSCPQPWFVVIKEHQDLKNGGQPVAGEDGQAADGSMQPTSWRQEPQLCGMGTEQGCWIPVSSDKGSCPQVMERSFHMPSYGTQTLEGGVEKPHSLLSANPLWQQRALDPPHQMELTQ", "values": [{"measurement": "effect on the synthesis of TAFA4 (modulation of TAFA4 in the NHK supernatant)", "result": "inhibits the synthesis of TAFA4"}]}
